Holding throughout (details): remark: other sources report otherwise
In test [1] the target is T1, Recombinant SARS-CoV2 RBD having a carboxy terminal his tag (SARS-CoV-2), P0DTC2.
Test [2] addresses T1, Recombinant SARS-CoV2 RBD having a …. This is another data set of the same source.
Test [3] addresses T2, SARS-CoV-2 D614G mutant spike protein expressed on HEK293 cells (SARS-CoV-2), P0DTC2.
The target of test [4] is T3, SARS-CoV-2 spike protein expressed on HEK293 cells (SARS-CoV-2), P0DTC2.
The target of test [5] is T2, SARS-CoV-2 D614G mutant spike protein …. The source holds these as a separate data set.
The target in test [6] is SARS-CoV-2 variant spike protein E484K on HEK293 cells (SARS-CoV-2), P0DTC2.
Test [7] addresses SARS-CoV-2 variant spike protein F490S on HEK293 cells (SARS-CoV-2), P0DTC2.
Test [8] has as its target SARS-CoV-2 variant spike protein S494P on HEK293 cells (SARS-CoV-2), P0DTC2.
Test [9] deals with SARS-CoV-2 variant spike protein deletion mutant del 243-244 on HEK293 cells (SARS-CoV-2), P0DTC2.
The target in test [10] is T3, SARS-CoV-2 spike protein expressed on …. As to the kind of experiment: flow cytometry on HEK293 cells expressing the spike; table 'spike'.

Read-outs that look alike come from different tables or passages of the source.

Usually Kd stands for the concentration at which binding is half-saturated. One may read the EC50 as the concentration that produces a half-maximal response. Lower therefore signals greater potency.

B1: antibody S1D2 (antibody, V domains shown)
VH: EVQLVESGGGLIQPGGSLRLSCAASGFTVSSNYMSWVRQAPGKGLEWVSIIYPGGSTNYADSVKGRFTISRDNSRNTLYLQMNSLRAEDTAVYYCARELGYYGMDVWGQGTTVTVSS
VL: DIQMTQSPSSVSASVGDRVTITCRASQGISTWLVWYQQKPGKAPNLLIYGASSLQSGVPSRFSGSGSGTDFTLTISSLQPEDFATYYCQQANSFPYTFGQGTKLEIK
As to B1, the figures for the Kd in test [1] and in [2] were 46 nM and 46.2 nM, respectively.

B2: S1D2LALA antibody (STI-1499) (antibody, V domains shown)
VH: B1 VH
VL: B1 VL
In the case of B2, the EC50 in test [3] amounted to 0.13 µg/mL; in test [4], 0.1 µg/mL; in test [5], 70 µg/mL; in test [6] it was 140 µg/mL; in test [7], 38 µg/mL; in [8], 194 µg/mL. For the same molecule, the half-maximal effective concentration (EC50) in test [9] is 180 µg/mL. For the same molecule, the Maxi % in [3] and in [10] was 100% throughout.

The values above are taken from patent US20230416343A1.
